Reference: patent US20240092867A1 (UNIVERSITY OF CHICAGO, published 2024)

T1: placental growth factor (PlGF)-2 (human, UniProt P49763-3 19-170)
T1 construct: mature; Purchased in mature form
T1 sequence (looked up): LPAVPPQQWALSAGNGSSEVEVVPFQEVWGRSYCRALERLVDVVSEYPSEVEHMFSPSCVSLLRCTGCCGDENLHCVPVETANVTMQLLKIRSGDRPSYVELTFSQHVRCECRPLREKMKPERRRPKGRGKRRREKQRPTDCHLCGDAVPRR

T2: vascular endothelial growth factor (VEGF)-A121 (human, UniProt P15692-9 27-147)
T2 construct: mature; Purchased in mature form, not glycosylated
T2 sequence (looked up): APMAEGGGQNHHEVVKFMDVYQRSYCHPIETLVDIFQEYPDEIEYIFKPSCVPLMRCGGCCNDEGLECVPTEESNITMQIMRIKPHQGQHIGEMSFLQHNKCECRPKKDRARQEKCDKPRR

T3: placental growth factor (PlGF)-1 (human, UniProt P49763-2 19-149)
T3 construct: mature; Purchased in mature form
T3 sequence (looked up): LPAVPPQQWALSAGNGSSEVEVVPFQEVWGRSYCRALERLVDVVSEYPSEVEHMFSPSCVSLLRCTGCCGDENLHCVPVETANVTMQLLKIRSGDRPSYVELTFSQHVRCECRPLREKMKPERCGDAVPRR

B1: FabCol-LamLG4 recombinant fusion protein (Fab)
light: EIVLTQSPGTLSLSPGERATLSCRASQSVSSSYLAWYQQKPGQAPRLLIYGASSRATGIPDRFSGSGSGTDFTLTISRLEPEDFAVYYCQQAIGFPQTFGQGTKVEIKRTVAAPSVFIFPPSDEQLKSGTASVVCLLNNFYPREAKVQWKVDNALQSGNSQESVTEQDSKDSTYSLSSTLTLSKADYEKHKVYACEVTHQGLSSPVTKSFNRGEC
heavy: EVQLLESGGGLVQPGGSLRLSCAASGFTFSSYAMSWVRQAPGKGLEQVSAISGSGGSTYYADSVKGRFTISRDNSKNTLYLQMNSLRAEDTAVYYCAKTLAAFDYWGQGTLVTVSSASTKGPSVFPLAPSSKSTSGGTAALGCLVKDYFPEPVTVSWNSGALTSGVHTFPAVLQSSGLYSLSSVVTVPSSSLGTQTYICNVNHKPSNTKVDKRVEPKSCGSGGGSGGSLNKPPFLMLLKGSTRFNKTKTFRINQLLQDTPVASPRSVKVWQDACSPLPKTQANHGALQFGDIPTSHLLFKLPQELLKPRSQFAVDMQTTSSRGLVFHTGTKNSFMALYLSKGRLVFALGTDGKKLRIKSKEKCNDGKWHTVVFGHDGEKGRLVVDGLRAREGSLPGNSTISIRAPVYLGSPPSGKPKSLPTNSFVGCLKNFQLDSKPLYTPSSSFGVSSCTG

Legend:
[1] = target: T1, placental growth factor (PlGF)-2; experiment: ELISA; peptide coated (10 µg/mL, legend paragraph 53), GF in solution, BSA-coated wells as control [panel D]
Procedure: (§1) (A) The location of laminin-derived peptides in the LG domain of laminin α3, α4, and α5 chains. (B-F) Affinity of heparin and GFs against chemically synthesized peptides derived from the LG domain of laminin α3, α4, and α5 chains. ELISA plates were coated with 10 μg/mL laminin peptide and further incubated with (B) biotinylated heparin, (C) VEGF-A165 and VEGF-A121, (D) PlGF-2 and PlGF-1, (E) PDGF-BB, or (F) FGF-2. Concentrations were 1 μg/mL for GFs and 10 μg/mL for heparin. Bound heparin was detected with streptavidin, and bound GFs with a specific antibody for each GF (n=4, mean±SEM). Statistical analyses were done using the Mann-Whitney U test by comparing the signals obtained from the laminin peptide- and the BSA-coated wells. *p<0.05, **p<0.01.
(§2) ELISA tests were performed as described above. […] 1 μg/mL of BSA served as non-binding protein control. After blocking with 2% BSA PBS-0.05% Tween 20 (PBS-T) solution, 1 μg/mL of the recombinant human proteins (VEGF-A121, VEGF-A165, PlGF-1, PlGF-2, PDGF-BB or FGF-2) or 10 μg/mL of biotinylated heparin (Sigma-Aldrich) were added. Bound GF was detected with biotinylated antibodies for human VEGF, PlGF, PDGF-BB, or FGF-2 (R&D Systems). The antibodies were detected by streptavidin-HRP (R&D Systems).

[2] = target: T4, platelet-derived growth factor (PDGF)-BB (human, UniProt P01127 82-190); experiment: ELISA; peptide coated (10 µg/mL, legend paragraph 53), GF in solution, BSA-coated wells as control [panel E]
T4 construct: mature; Purchased in mature form
Procedure: as §1, §2

[3] = target: T2, vascular endothelial growth factor …; experiment: ELISA, peptide coated
Procedure: as §1, §2

[4] = target: T3, placental growth factor (PlGF)-1; experiment: ELISA, peptide coated
Procedure: as §1, §2

[5] = target: T5, vascular endothelial growth factor (VEGF)-A165 (human, UniProt P15692-4 27-191); experiment: ELISA, peptide coated, GF 1 µg/mL
T5 construct: mature; Purchased in mature form, not glycosylated
Procedure: as §1, §2

bovine type I collagen = target: T6, bovine type I collagen (bovine, UniProt P02453 178-1191; P02465 89-1102); experiment: ELISA, collagen I coated, 0.01-30 nM binder
T6 construct: PureCol, Advanced BioMatrix; coated on the plate; also called collagen I; PureCol
Procedure: ELISA plates (NUNC MaxiSorp, ThermoFisher Scientific) were coated overnight with 10 μg/mL of bovine type I collagen (PureCol, Advanced BioMatrix, San Diego CA, USA) at room temperature. The plate was further blocked using 2% bovine serum albumine (BSA) for 2 h at room temperature. […] The plate was washed thrice in PBST, and an horseradish peroxidase-conjugated anti-human Fab antibody (Jackson ImmunoResearch,) was used to detect bound FabCol variants. […] Absorbance at 450 nm was read using […], and corrected using the absorbance at 570 nm. Curve fits and dissociation constant KD were computed using Prism (GraphPad Software Inc., USA).

[6] = target: T1, placental growth factor (PlGF)-2; experiment: ELISA; growth factors coated at 100 nM, FabCol variants at 100 nM in solution, HRP-anti-human Fab [panel F]
[7] = target: T4, platelet-derived growth factor (PDGF)-BB; experiment: as above
[8] = target: T5, vascular endothelial growth factor …; experiment: as above
[9] = target: T3, placental growth factor (PlGF)-1; experiment: as above
recombinant human BMP-2 = target: T7, recombinant human BMP-2 (human, UniProt P12643 283-396); experiment: ELISA, rhBMP-2 coated 50 nM, binder 50 nM
T7 construct: also called rhBMP-2
T7 sequence (P12643 283-396 limits assumed): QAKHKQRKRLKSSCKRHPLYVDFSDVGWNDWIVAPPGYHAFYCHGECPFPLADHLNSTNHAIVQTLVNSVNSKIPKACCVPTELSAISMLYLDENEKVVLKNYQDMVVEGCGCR
Procedure: ELISA plates (NUNC MaxiSorp) were coated with 50 nM of recombinant human BMP-2 (CHO produced, R&D Systems, Minneapolis MN, USA) overnight at room temperature.

T4 sequence (P01127 82-190): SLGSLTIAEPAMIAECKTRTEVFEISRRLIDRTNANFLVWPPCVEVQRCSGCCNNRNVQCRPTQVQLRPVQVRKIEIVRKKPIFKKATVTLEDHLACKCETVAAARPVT
T6 sequence (P02453 178-1191, chain 1 of 2): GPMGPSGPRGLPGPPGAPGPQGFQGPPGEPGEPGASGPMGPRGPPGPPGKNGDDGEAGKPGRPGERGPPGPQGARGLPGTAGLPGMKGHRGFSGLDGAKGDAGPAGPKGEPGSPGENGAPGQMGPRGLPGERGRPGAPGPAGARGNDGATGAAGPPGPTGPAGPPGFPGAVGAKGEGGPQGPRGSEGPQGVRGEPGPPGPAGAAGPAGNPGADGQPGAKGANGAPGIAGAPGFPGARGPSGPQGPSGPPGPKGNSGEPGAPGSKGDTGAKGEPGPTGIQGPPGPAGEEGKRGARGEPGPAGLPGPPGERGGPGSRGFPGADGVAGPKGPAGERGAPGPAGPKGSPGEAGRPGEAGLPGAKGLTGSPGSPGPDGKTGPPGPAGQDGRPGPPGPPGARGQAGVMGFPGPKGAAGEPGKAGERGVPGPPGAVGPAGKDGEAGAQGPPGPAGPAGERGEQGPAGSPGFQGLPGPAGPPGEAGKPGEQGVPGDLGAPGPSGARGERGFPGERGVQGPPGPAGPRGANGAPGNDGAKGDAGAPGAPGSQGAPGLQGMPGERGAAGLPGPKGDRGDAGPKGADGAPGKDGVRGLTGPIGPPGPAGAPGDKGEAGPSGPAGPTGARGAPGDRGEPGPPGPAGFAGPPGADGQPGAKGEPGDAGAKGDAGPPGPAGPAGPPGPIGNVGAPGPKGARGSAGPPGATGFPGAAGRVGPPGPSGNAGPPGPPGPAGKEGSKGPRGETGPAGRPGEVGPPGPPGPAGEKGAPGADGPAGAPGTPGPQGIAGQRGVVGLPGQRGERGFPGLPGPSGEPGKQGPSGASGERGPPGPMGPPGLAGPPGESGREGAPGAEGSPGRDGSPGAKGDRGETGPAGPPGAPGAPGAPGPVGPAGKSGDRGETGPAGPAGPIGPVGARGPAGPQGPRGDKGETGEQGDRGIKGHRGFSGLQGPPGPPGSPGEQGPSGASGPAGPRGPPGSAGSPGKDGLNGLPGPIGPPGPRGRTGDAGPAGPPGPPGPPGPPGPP
T6 sequence (P02465 89-1102, chain 2 of 2): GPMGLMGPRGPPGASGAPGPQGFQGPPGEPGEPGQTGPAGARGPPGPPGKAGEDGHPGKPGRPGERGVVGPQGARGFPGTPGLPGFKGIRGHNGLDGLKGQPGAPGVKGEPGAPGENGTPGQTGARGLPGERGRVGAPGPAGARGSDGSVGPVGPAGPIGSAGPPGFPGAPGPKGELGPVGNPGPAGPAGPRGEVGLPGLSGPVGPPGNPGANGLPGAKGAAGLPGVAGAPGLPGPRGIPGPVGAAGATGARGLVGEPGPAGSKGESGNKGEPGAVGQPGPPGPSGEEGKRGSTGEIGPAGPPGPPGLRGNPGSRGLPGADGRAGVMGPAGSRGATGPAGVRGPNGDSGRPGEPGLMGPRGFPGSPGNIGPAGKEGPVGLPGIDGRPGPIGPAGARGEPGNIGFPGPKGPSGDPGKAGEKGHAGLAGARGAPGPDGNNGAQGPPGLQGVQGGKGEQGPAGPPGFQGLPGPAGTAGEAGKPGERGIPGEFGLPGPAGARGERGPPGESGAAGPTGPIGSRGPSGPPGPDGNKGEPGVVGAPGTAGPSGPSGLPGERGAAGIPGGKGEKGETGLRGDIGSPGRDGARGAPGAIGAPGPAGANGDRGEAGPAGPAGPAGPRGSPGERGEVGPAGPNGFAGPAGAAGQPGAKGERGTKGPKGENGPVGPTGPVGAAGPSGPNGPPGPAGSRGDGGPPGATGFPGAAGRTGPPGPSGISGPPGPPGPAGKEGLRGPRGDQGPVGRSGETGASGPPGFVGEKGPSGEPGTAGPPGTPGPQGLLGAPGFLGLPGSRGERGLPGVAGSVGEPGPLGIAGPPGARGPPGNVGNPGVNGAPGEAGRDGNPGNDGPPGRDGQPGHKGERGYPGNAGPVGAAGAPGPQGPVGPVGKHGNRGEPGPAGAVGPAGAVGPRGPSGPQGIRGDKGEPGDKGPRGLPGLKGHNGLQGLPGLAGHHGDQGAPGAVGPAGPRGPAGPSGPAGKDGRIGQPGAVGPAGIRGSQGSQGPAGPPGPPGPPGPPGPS

Binder | binding result [1] | binding result [2] | binding result [3] | binding result [4] | binding result [5] | Kd (bovine type I collagen) [nM] | binding result [6] | binding result [7] | binding result [8] | binding result [9] | binding result (recombinant human BMP-2)
KNSFMALYLSKGR (Chemically synthesized (Genscript)) [laminin α3 3031-3043 peptide (LG4)] | no binding (tested: 1 µg/mL PlGF-2 (single concentration)) | no binding (tested: 1 µg/mL PDGF-BB (single concentration)) | no binding (tested: 1 µg/mL) | no binding (tested: 1 µg/mL) | binds |  |  |  |  |  | 
B1 |  |  |  |  |  | ~2.3 | binds | binds | binds | no binding (tested: 100 nM (single concentration)) | binds
